Experiment: yeast display, Sf9 membrane polyspecificity reagent, FACS + sequencing; frameworks hold sequencing errors
Summary of the method: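 Galactose induction of a Saccharomyces cerevisiae BJ5465 synthetic nanobody display library ran 36–48 hours. The cells were then stained for 1 hour at 4 °C with 10% biotinylated, detergent-solubilized Sf9 membrane reagent, pulled down on streptavidin microbeads and FACS-sorted into low and high (top ~1%) gates on expression and reagent-binding fluorescence. Labels for polyreactivity follow the gate of origin.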

Row | Sequence | polyreactivity (PSR sort gate)
1 | QVQLVESGGGLVQAGGSLRLSCAASGRIFAFYALGLYRQAPGKEREFVAAITYSGGNTNYADSVKGRFTISRDNAKNTVYLQMNSLKPEDTAVYYCAADLVYGVYYQEDYWGQGTQVTVSS | low polyreactivity
2 | QVQIVESGGGLVQAGGSLRLSCAASGSTFLKYTMGWYRQAPGKERELVAAISKSGGSTYYADSVKGRFTISRDNAKNTVYLQMNSLKPEDTAVYYCAIGRSWVSSYGYGYWGQGTQVTVSS | high polyreactivity
3 | QVQLVESGGGLVQAGGSLRLSCAASGIISGEYAMGWYRQAPGKERELVAAIDYSGVSTYYADSVKGRFTISRDNAKNTVYLQMNSLKPEDTAVNYCAAYPSSEYDYWGQGTQVTVSS | low polyreactivity
4 | QGHLVESLGGLVQAGGSLRLSCAASGRIIGVYAMGWSRQAPGKERELVAAISEGGGSTNYADSVKGRFTISRDNSKNTVYLQMNSLKPEDTAVYYCNADADEYRDYHDYDYWGQGTQVTVSS | low polyreactivity
5 | QVQLVESGGGLVQAGGSLRLSCAASGRTIDSNAMGWYRQAPGKERELVAAISSDGGSTYYADSVKGRFTISRDNAKNTVYLQMNSLKPEDTAVYYCNAYYGRFPYYADDYWGQGTQVTVSS | low polyreactivity
6 | QVQLVESGGGLVQAGGSLRLSCAASGRIFYGYAMGWYRQAPGKERELVAAITRGVSTYYADSVKGRFTISRDNAKNTVYLQMNSLKPEDTAVYYCAKDRRVRMDSWGQGTQVTVSS | low polyreactivity
7 | QVQLVESGGGLVQAGGSLRLSCAASGRIFGTNAMGWYRQAPGKERELVAAISRGGNTYYADSVKGRFTISRDNAKNTVYLQMNSLKPEDTAVYYCAARPGSGRSYTSDYWGQGTQVTVSS | high polyreactivity
8 | QVQLVESGGGLVQAGGSLRLSCAASGSIFAYNAMGWYRQAPGKEREFVAAISLSGGRTYYADSVKGRFTISRDNAKNTVYLQMNSLKPEDTAVYYCATDGIRLTRHRDYDYWGQGTQVTVSS | low polyreactivity
9 | QVQLVESGGGLVQAGGSLRLSCAASGFILKYYAMGWYRQAPGKERELVAAISWSGGSTYYADSVKGRFTISRDNAKNTVYLQMNSLKPEVTAVYYCNAYYVYNSLGYWGQGTQVTVSS | high polyreactivity
10 | QVQLVESGGGIVQAGGSLRLSCAASGRTFSPYAMGWYRQAPGKERELVAGITWSGGSTYYSDSVKGRFTISRDYAKNPVYFQMNFLKPEDTAVYYCNAVGTYAYYCSFAYDYWGQGTQVNVSS | high polyreactivity
11 | QVQLVESGGGLVQAGGSLRLSCAASGSIFYSNMGWYRQAPGKEREFFAAISGSGVRTYYADSVKGRFTISRDNAKNTVYLQMNSLKPEDTAVYYCNAGRRQDFRYNYWGHGTQVTVSS | high polyreactivity
12 | QVQLVESGGGLVQAGGSLRLSCAASGSIFVSNTMGWYRQAPGKEREMVASIRETAGSTNYADSVKGRFTISRDYAKNTFYLQMNSLKPEDTAVYYCAARYSPTRYHYGYWGQGTQVTVSS | low polyreactivity
13 | QVQLVESGGGLVHAGGSLRLSCAASGLIFTNAMGWYRQAPGKEREFVAAINSSGGSTYADSVKGRFTISRDNAKNTVYLQMNSLKPEDTAVYFCAARVIYLYEYWGQGTQVTVSS | low polyreactivity
14 | QVQLVESGGGLVQAGGSLRLICAASGFIFTLYAMGWYRQAPGTERELVAAISKTGGRTYYADSVKGRFTISRDNAKNTVYLQMNSLKPEDTAVYYCAKDVPSTYAAAYDYWGQGTQVTVSS | high polyreactivity
15 | QVQLVESGGGIVQAGGSLRLSCAASGSTFATYAMGWYRQAHGKERELVAAITRSGGITYYADSVKGRFTISRDNAKKTVYLHMKSLKPEDTAVYYCNARTRSPTFSGRYYWGQATQVTVSS | high polyreactivity
16 | QVQLVESGGGLVQAGGSLRLSCAASGFTFRTNLMVWYRQAPGKERELVAVITRDGGSTYYADSVKGRFTISRDHAKNTVYLQINSLKPEDTAVYYCNAAAFINFILYDYWGQGTQVTVSS | high polyreactivity
17 | QVQLVQSGGGLVQAGGRLSLSCAASGRTIDTYAMGWYRQAPGKERELVAAITRRTYYADSVKGRFTISRDNAKNSVYLQMNSLKPEDTAVDYCAVRFLRKWTSSRHYGYWGQGTQVTLSS | high polyreactivity
18 | QVQLVESGGGLVQAGGSLRLSCAASGRIFDGYAMGWYRQAPGKERELVATITGDGGSTYYADSVKGRFTISRDNAKNTVYLQMNSLKPEDTAVYYCAARLTRRLSWYLYNNDYWGQGTQVTVSS | high polyreactivity
19 | QVQLVESGGGLVQAGGSLRLSCAASGFTFFIYVMGWYRQAPGKEREFVAAISSSGDSTYYADSVKGRFTSSRDNAKNTVYLQMNSLKPEDTAVYYCNAGDKVSSYWYDYWGQGTQVTVSS | low polyreactivity
20 | QVQLVESGGGLVQAGGSLRLSCAASGSIFRRYAMGWYRQAPGKERELVAGISSGGYTNYADSVKGRFTISRDNAKNTVYLQMNRLKPEDTAVYYCAAKQYRYVRYRPVDYWGQGTQVTVSS | high polyreactivity
21 | QVQLVESGGGLVQAGGSLRLSCASSGFIFSSYAMGWYRQAPGKERELVAAISLRSTTTYYADSVKGRFTISRDNAKNSVYLQMNSLKPEDTAVDYCAKGGSRDRYGYWGQGTQVTVSS | high polyreactivity
22 | QVQLVESGGGLVQAGGSLRLSCAPSGRIFTEYVMGWYRQAPGKERELVAAAITRGGSTNYADSVKGRFTISRDNAKNTVYLQMISLKPEDTAVYYFNKDDWPFSRQLYTGKYDSWGQGTQVTVSS | low polyreactivity

Row | Sequence | polyreactivity (PSR sort gate)
23 | QVQLVESGGGLVQAGGSLRISCEAYGSIFGSYAMGWYRQEPGKERELVAGITYRGSSTYYADSVKGRYTISRDNAKNTVYLQMNSLKPEDTAVYYCAADPVFDEYDYWGQGTQVTVSW | low polyreactivity
24 | QVQLVESGGGLVQAGGSLRLSCAASGFIFWLYPMGWYRQAPGKERELVAAISSSGGNTYYADSVKGRFTISRDNAKNTVDLQMISLKPEDTAVYYCAASYSYGRTYSGYYWGQGTQVTVSS | low polyreactivity
25 | QVQLVESGGCLVQAGGSLRLSCAASGFILSGNTMGWYRQAPGKERELVAGINDDSSTYYADSVKGGFTISRDNAKNTVYLQMNSLKPEDTAVYYCNAGQSWYPSWYYYWGQGTQVTVSS | low polyreactivity
26 | QVQLVESGGGLVQAGGSLRLSCAASGSTFLAYAMGWYRQAPGKERELVAAISSSGGRPYYADSVKGRFTISRDYAKNTVYLQMNSLNPEDTAVYYCAARYKNRGGFGYWGQGTRVTVSS | high polyreactivity
27 | QVQLVESGGGLVQAGGSLRLSCAASGFSIYRNSMGWYRPAPGKERELVAGISSGGSTNYADSVKGRFTISRDNAKNTVYLQMNSLKPEDTAVYYCATRVYALWFGRYDYWGQGTQVTVSS | high polyreactivity
28 | QVHLVESGGGLVNAGGTLRLSCAASGSTYSRYAMGWYRQAPVKESELVAAITRSGGSTYYADSVKGRFTISRDNAKNTVYLQMNSLKPEDTAVYYCNRPRLYGGSPYYYWGQGTQVTVSS | high polyreactivity
29 | QVQLVESGGGLVQAGGSLRLSGAAWSIFYLNAMGWYRKAPGKERELVAAISSAGSTYYADSVKGRFTISRDNAKNTVYLQMNSLKPEDTAVYYCAAYWYDSPGVTEIWYDYWGQGTQVTVSS | low polyreactivity
30 | QVQLVESGGGLVQAGGSLRLSCAASGSIFLLYAMGWYRQAPGKERELVAAISTRDGSTYYADSVKGRFTLSRDNAKNTVYLQMNSLKPEDTAVYYCATLYSYNYWGQGTQVTVSS | high polyreactivity
31 | QFQLVESGGGLVQAGGSLRLSCAASGSIFLAYDMGWYRQAPGKERELVAGITSGGTTYYADSVKGRFTISRDNAKNTVYLQMNSLKPADTAVYYCAALLYTPYYYWGQGTQVTVSS | low polyreactivity
32 | QVQLVESGGGLVQAGGSLRLSCAASGSTFGYYAMGWYRQAPGNEREFVAAITYGDGNTYYADSVKGRFTISRDNAKNTVYLQMNRLKPEDTAVYYCAKYYWAPTGAHGGYGYWGQGTQVTVSS | low polyreactivity
33 | QVQLVESGGGLVQAGGSLRLTCAASGGILYYNAMGWYRQAPGKEREVVAAISRSGITYYADSVKGRFTISRDNAKNTVYLQMNSLKPEDTAVYYSNTVPWRRWGYDYWGQGTQVTVSS | high polyreactivity
34 | QVQLVESGGGLVQAGGSLRLSCAASGNIFVSNVMGWYRQAPGKERELVAAISSGGRTYYADSVKGRFTISRDNAKNTVYLQMNSLKPEDTAVYYCAASYKSKYLGGGEYWGQGTQVTVSS | high polyreactivity
35 | QVQLEESGGGLVQAGGSLRLSCAASGGTFYAYAMGWYRQAPGKERELVAAITRSGGRTYYADSVKGRFTISRDNAKNTVYLQMNSLKPEDTAVYYCAADPHHYSGLDYWGQGTQVTVSS | low polyreactivity
36 | QVQLVESGGGLVQAGGSLRLSCAASGFTFVQYAMGWYRQAPGKERELVATISKSGGITYYADSVKGRFTISRDNAKNTVFLQMNSLKPEVTAVYYCAAAWYYSSRGFHATWGHDYWGQGTQVTVSS | low polyreactivity
37 | QVQLVESGGGLVQAVGGLRLSCAASGSTFKRNTMGSYRQAPGKEMELVAAISRSGGSTYYADSVKGRFTISRDNAKNTVYLQMNSLKPEDTAVYYCNAYVSSYVGSRSYGLSPYDYWGQGTQVTVSS | high polyreactivity
38 | QVQLVESGGGLVQAGGSLRLSCAASGRIFRFYAMGWYRQAPGKERELVAAISSRGGSTYDADSVKGRFTISRDNAKNTVYLQMNSLKPEDTAVYYCNAYGSTSQMDYWGQGTQVTVSS | high polyreactivity
39 | HVQLVESGGGLVQAGGSLRLSCAASGRSLSDYAMGWYRQAPGKERELVATITSGDSTNYADSVKGRFTISRDNEKNTVYLQMNSLKPEDTEVYYCNADRFADYDYWGQGTQVTVSS | low polyreactivity
40 | QVQIVESGGGLVQAGGSLRFSCAASGRTFGTNTMGWYRQAPGKERELVATISSSSGSTYYADSVKGRFTISRDNAKNTVYLQMNSLKPEDTAVYYCAALSRWRYKRYDYWGQGTQVTVSS | high polyreactivity
41 | HVQLVESGGGLVQAGGSLRLSCAASGSTFKRNTMGWYRQAPGKERELVAAISRSGGSTYYADSVKGRFTISRDNAKNTVYLQMNSLKPEDTAVYYCNAYVSSYVGSRSYGLSPYDYWGQGTQVTVSS | high polyreactivity
42 | QVQLVESGGGLVQAGGSLRLSCAASGIIFYYNAMGWYRPAPGNERELVAAISGRGGSTYYADSVKGRVTISRDNAKNTVYLQMTSLKPEDTAVYYCAAARVGSRYGYDYWGQGTQGTVSS | low polyreactivity
43 | QVQLVESGGGLVQAGGSLRLSCAASGSIFEPYVMGWYRQAPGKERELVAAIRQTGGSTYYADSVKGRFTISRDNAKNTVYLQMNSLKPEDTAVYYCNAEQNPSGLYDYRGVEGEMGYWGQGTQVTVSS | low polyreactivity
